In publication PMC5738273 (Journal of molecular biology, 2017):

B1: wild-type HdeA (natural protein, Escherichia coli, UniProt P0AES9 22-110, looked up)
chain: ADAQKAADNKKPVNSWTCEDFLAVDESFQPTAVGFAEALNNKDKPEDAVLDVQGIATVTPAIVQACTQDKQANFKDKVKGEWDKIKKDM
B2: HdeA E37Q (natural protein, Escherichia coli, UniProt P0AES9 22-110, looked up)
chain: ADAQKAADNKKPVNSWTCEDFLAVDESFQPTAVGFAQALNNKDKPEDAVLDVQGIATVTPAIVQACTQDKQANFKDKVKGEWDKIKKDM

Columns and labels:
[1] = target: the molecule itself; assay: ITC
[2] = target: the molecule itself; assay: MST
[3] = target: the molecule itself; assay: MST; remark: listed apart in the source
[4] = target: the molecule itself; assay: MST; remark: listed apart in the source
[5] = target: the molecule itself; assay: MST; remark: listed apart in the source

| Protein | Kd [1] | Kd [2] | Kd [3] | Kd [4] | Kd [5] |
| --- | --- | --- | --- | --- | --- |
| B1 | 64000 ± 8000 nM | 1200 ± 200 nM | 750 ± 310 nM | 640 ± 170 nM |  |
| B2 |  |  |  | 550 ± 100 nM | 490 ± 100 nM |
